Laboratory results taken from patent US20200300873A1.

T1: Human hepcidin peptide (hepcidin-25) (human)
T1 sequence (peptide): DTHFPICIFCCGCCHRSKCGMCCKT


How the values were obtained:
[1] = molecular target: Hepcidin MAb 583; assay: competitive ELISA on mAb 583 coated wells; competitor biotinylated hepcidin-25 tracer; standard at 0 ng/mL
[2] = molecular target: Hepcidin MAb 583; assay: competitive ELISA on mAb 583 coated wells; competitor biotinylated hepcidin-25 tracer; standard at 10 ng/mL
[3] = molecular target: Hepcidin MAb 583; assay: competitive ELISA on mAb 583 coated wells; competitor biotinylated hepcidin-25 tracer; standard at 100 ng/mL
[4] = molecular target: Hepcidin MAb 583; assay: competitive ELISA on mAb 583 coated wells; competitor biotinylated hepcidin-25 tracer; standard at 250 ng/mL
[5] = molecular target: Hepcidin MAb 583; assay: competitive ELISA on mAb 583 coated wells; competitor biotinylated hepcidin-25 tracer; standard at 2.5 ng/mL
[6] = molecular target: Hepcidin MAb 583; assay: competitive ELISA on mAb 583 coated wells; competitor biotinylated hepcidin-25 tracer; standard at 25 ng/mL
[7] = molecular target: Hepcidin MAb 583; assay: competitive ELISA on mAb 583 coated wells; competitor biotinylated hepcidin-25 tracer; standard at 50 ng/mL
[8] = molecular target: Hepcidin MAb 583; assay: competitive ELISA on mAb 583 coated wells; competitor biotinylated hepcidin-25 tracer; standard at 1000 ng/mL
[9] = molecular target: T1, Human hepcidin peptide (hepcidin-25) (human); assay: Biacore (SPR); upper end of the estimated range 7-8 pM
[10] = molecular target: T1, Human hepcidin peptide (hepcidin-25) (human); assay: method not stated
[11] = molecular target: T1, Human hepcidin peptide (hepcidin-25) (human); assay: Biacore (SPR); lower end of the estimated range 7-8 pM

Chain of Hepcidin MAb 583 (heavy, as listed by the source, chain 1 of 2): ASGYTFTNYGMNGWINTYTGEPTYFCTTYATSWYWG
Chain of Hepcidin MAb 583 (light, as listed by the source, chain 2 of 2): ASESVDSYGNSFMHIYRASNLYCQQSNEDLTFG

Absorbance (450 nm) [1] | Absorbance (450 nm) [2] | Absorbance (450 nm) [3] | Absorbance (450 nm) [4] | Absorbance (450 nm) [5] | Absorbance (450 nm) [6] | Absorbance (450 nm) [7] | Absorbance (450 nm) [8] | Kd [9] | affinity (unit not given) [10] | Kd [11] | Binder
2.36 OD 450 nm | 1.61 OD 450 nm | 0.24 OD 450 nm | 0.1 OD 450 nm | 2.14 OD 450 nm | 0.9 OD 450 nm | 0.47 OD 450 nm | 0.03 OD 450 nm |  |  |  | DTHFPICIFCCGCCHRSKCGMCCKT [Human hepcidin peptide (hepcidin-25)]
 |  |  |  |  |  |  |  | 7 to 8 pM | 5.16e-11 | 7 to 8 pM | Hepcidin MAb 583 (antibody, from a related filing, V domains shown, part only) VH: QIQLVQSGPELKKPGETVKISCKASGYTFTNYGMNWVKQAPGKGLKWMGWINTYTGEPTYADDFKGRFAFSLETSASTAYLQINNLKNEDTATYFCTTYATSWYWGQG VL: DIVLTQSPASLAVSLGQRATISCRASESVDSYGNSFMHWYQQKPGQPPKLLIYRASNLESGIPARFSGSGSRTDFTLTINPVEADDVATYYCQQSNEDLTFG
